According to patent US9217013B2, “Treatment of amyloidoses using myelin basic protein and fragments thereof” (The Research Foundation for the State University of New York, priority 2008, dated 2015):

Assays:
[1] = system: Aβ; assay: Recombinant MBP regions tested for ability to bind Aβ and inhibit fibrillogenesis; format: binding; details: Aβ form not stated
Procedure: (§1) Using recombinant methodology to express and purify regions of the 18.5 kDa human MBP protein and test their abilities to bind Aβ and inhibit fibrillogenesis, cDNAs were prepared for the following regions of MBP shown in FIG. 3. The cDNAs for MBP fragments were cloned into pTYB11 plasmids containing an ampr gene and transformed into competent E. coli BL21 DE3 cells. Expression of cDNAs in this vector results in a fusion protein containing a chitin binding domain (CBD) as well as a self-cleavable intein protein from S. cerevisiae. CBD-Intein-MBP fusion proteins were captured on chitin beads from the resulting cell lysates. MBP protein fragments were eluted by inducing the cleavage between the C-terminus of the intein and the N-terminus of MBP by exposure to dithiothreitol. […] MBP was further purified by cation exchange chromatography on CM52 resin, resulting in a >95% pure protein preparations. Each of the four MBP fragments were tested for binding to Dutch/Iowa Aβ40 and wild-type Aβ42 by surface plasmon resonance (FIG. 4).
Such a motif, KRGX1X2X3X4X5X6HP (SEQ ID NO:1), was found in MBP 33-64 and in AβPP 54-64. Specifically, the motif in MBP spans residues 54-64. […]

[2] = molecular target: T1, HCSM cell surface fibrillar Aβ (Homo sapiens, UniProt P05067, E693Q); assay: Endogenous sAβPPα binding to fibrillar Aβ on HCSM cell surface; format: cell-based; details: AβPP-(105-119) at higher concentrations
T1 construct: made in house; host or cells: chemical synthesis (solid-phase Fmoc)

[3] = system: HCSM cells; assay: HCSM cell viability (live/dead assay) after Dutch-type Aβ-(1-40); format: cell-based, human; details: 25 μM Dutch-type Aβ-(1-40), 1 μM protein, 6 days at 37° C.
Text: Primary cultures of HCSM cells were established and characterized. Two lines of HCSM cells were used in these studies. One was derived from a AD patient and the other was derived from a person control. All HCSM cells were used between passages 4-7 and maintained in 24-well tissue culture dishes with Dulbecco's […] containing 10% fetal bovine serum (Gemini Bio-Products, Calabasas, Calif.), non-essential amino acids, and antibiotics (Invitrogen). For experiments, near-confluent cultures of HCSM cells were placed in serum-free medium containing 0.1% BSA, non-essential amino acids, and antibiotics overnight prior to treatment. Freshly solubilized Dutch-type Aβ-(1-40) at a final concentration of 25 μM was added to the cultures in serum-free medium and incubated at 37° C. for 6 days. Cells were routinely viewed and photographed using an Olympus IX70 phase-contrast microscope. Cell viability was quantified using a fluorescent live/dead cell assay following the manufacturer's protocol (Molecular Probes, Eugene, Oreg.). The number of live and dead cells were counted from several fields (n=4) from at least three separate wells for each experiment.
Incubation of HCSM cells with pathogenic Dutch-type Aβ-(1-40) leads to cell death. […]

[4] = molecular target: T2, fibrillar Aβ (Homo sapiens, UniProt P05067, E693Q); assay: Solid-phase binding assay, competition against biotinylated sAβPPα
T2 construct: made in house; host or cells: chemical synthesis (solid-phase Fmoc)
Procedure: Aβ peptides or amylin were assembled into fibrils as described above. […] Two μg of each fibrillar Aβ peptide, fibrillar amylin, or ovalbumin in 100 μl of phosphate-buffered saline (PBS) were dried in a 96-well microtiter plate (Corning, Cambridge, Mass.) overnight at 37° C. The wells were rinsed with PBS three times and blocked with 100 μl per well PBS containing 1 mg/ml bovine serum albumin (BSA) for 1 hour at room temperature. After rinsing three times with PBS, known concentrations of biotinylated sAβPPα in PBS containing 0.1 mg/ml BSA were incubated in triplicate (100 μl per well) for 1 hour at room temperature. After rinsing the wells with PBS three times, 100 μl of streptavidin conjugated to horseradish peroxidase in PBS containing 0.1 mg/ml BSA (1:800) was added for 1 hour at room temperature. The binding of biotinylated sAβPPα was detected using the colorimetric substrate o-phenylenediamine dihydrocholride as described by the manufacturer (InVitrogen). Briefly, the substrate was diluted in buffer (0.1 M sodium citrate, pH 4.5) to a final concentration of 1 mg/ml. H202 was added to a final concentration of 0.012% immediately before 100 μl of the substrate was added to each microtiter well. […] The conversion of the colorimetric substrate was measured at a wavelength of 490 nm using a Molecular Dynamics Vmax kinetic plate reader (Sunnyvale, Calif.). […]

[5] = molecular target: T3, fibrillar wild-type Aβ-(1-42) (Homo sapiens, UniProt P05067); assay: Solid-phase binding of GST-AβPP-(18-119) proteins to fibrillar wild-type Aβ-(1-42)
T3 construct: made in house; host or cells: chemical synthesis (solid-phase Fmoc)
Procedure: (§2) Aβ peptides or amylin were assembled into fibrils as described above. […] Two μg of each fibrillar Aβ peptide, fibrillar amylin, or ovalbumin in 100 μl of phosphate-buffered saline (PBS) were dried in a 96-well microtiter plate (Corning, Cambridge, Mass.) overnight at 37° C. The wells were rinsed with PBS three times and blocked with 100 μl per well PBS containing 1 mg/ml bovine serum albumin (BSA) for 1 hour at room temperature. After rinsing three times with PBS, known concentrations of biotinylated sAβPPα in PBS containing 0.1 mg/ml BSA were incubated in triplicate (100 μl per well) for 1 hour at room temperature. After rinsing the wells with PBS three times, 100 μl of streptavidin conjugated to horseradish peroxidase in PBS containing 0.1 mg/ml BSA (1:800) was added for 1 hour at room temperature. The binding of biotinylated sAβPPα was detected using the colorimetric substrate o-phenylenediamine dihydrocholride as described by the manufacturer (InVitrogen). Briefly, the substrate was diluted in buffer (0.1 M sodium citrate, pH 4.5) to a final concentration of 1 mg/ml. […] The conversion of the colorimetric substrate was measured at a wavelength of 490 nm using a Molecular Dynamics Vmax kinetic plate reader (Sunnyvale, Calif.).
(§3) Bound secondary antibody was detected using the colorimetric substrate as described above.

[6] = molecular target: T4, fibrillar amylin peptide (Homo sapiens, UniProt P10997); assay: Solid-phase binding of GST-AβPP-(18-119) proteins to fibrillar amylin
T4 construct: Amylin peptide was obtained from Bachem (San Carlos, Calif.); purchased Bachem (San Carlos, Calif.)
T4 sequence (P10997 34-70 limits assumed): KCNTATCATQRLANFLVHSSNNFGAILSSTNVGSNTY
Procedure: as §2, §3

[7] = molecular target: T5, fibrillar Dutch-type Aβ-(1-40) (Homo sapiens, UniProt P05067, E693Q); assay: Solid-phase binding of GST-AβPP-(18-119) proteins to fibrillar Dutch-type Aβ; details: for binding to fibrillar Aβ compared with wild-type GST-AβPP-(18-119): alanine substitution mutants
T5 construct: made in house; host or cells: chemical synthesis (solid-phase Fmoc)
Procedure: Aβ peptides or amylin were assembled into fibrils as described above. […] Two μg of each fibrillar Aβ peptide, fibrillar amylin, or ovalbumin in 100 μl of phosphate-buffered saline (PBS) were dried in a 96-well microtiter plate (Corning, Cambridge, Mass.) overnight at 37° C. The wells were rinsed with PBS three times and blocked with 100 μl per well PBS containing 1 mg/ml bovine serum albumin (BSA) for 1 hour at room temperature. After rinsing three times with PBS, known concentrations of biotinylated sAβPPα in PBS containing 0.1 mg/ml BSA were incubated in triplicate (100 μl per well) for 1 hour at room temperature. After rinsing the wells with PBS three times, 100 μl of streptavidin conjugated to horseradish peroxidase in PBS containing 0.1 mg/ml BSA (1:800) was added for 1 hour at room temperature. The binding of biotinylated sAβPPα was detected using the colorimetric substrate o-phenylenediamine dihydrocholride as described by the manufacturer (InVitrogen). Briefly, the substrate was diluted in buffer (0.1 M sodium citrate, pH 4.5) to a final concentration of 1 mg/ml. H202 was added to a final concentration of 0.012% immediately before 100 μl of the substrate was added to each microtiter well. The solution was developed for =30 min at room temperature and quenched by the addition of 50 μl of 4N H2SO4 to each well. The conversion of the colorimetric substrate was measured at a wavelength of 490 nm using a Molecular Dynamics Vmax kinetic plate reader (Sunnyvale, Calif.).
as §3
However, this small peptide was not nearly as effective as the larger, recombinantly expressed AβPP-(18-119) in binding to fibrillar Aβ. Therefore, alanine-scanning mutagenesis studies of the AβPP-(105-119) sequence within AβPP-(18-119) were performed to further identify key epitopes important in facilitating its binding to fibrillar Aβ. Alanine residues were introduced from Cys^105 through Cys^117 of AβPP-(18-119) by site-directed mutagenesis of the AβPP-(18-119) cDNA. Each mutant AβPP-(18-119) cDNA was expressed as a GST fusion protein and purified, and the concentrations were carefully determined by quantitative immunoblotting as described in “Experimental Procedures”.

[8] = molecular target: Aβ40DI (Homo sapiens, UniProt P05067, D694N/E693Q); assay: Thioflavin T fluorescence assay of Aβ40DI fibril formation; format: biochemical; details: 12.5 μM Aβ40DI, 1.56 μM protein, PBS, 37° C.
Procedure: FIG. 16 Thioflavin T analysis of inhibition of CAA mutant Aβ fibril formation by MBP. Aβ40DI at a concentration of 12.5 μM in PBS in the absence (□) or presence of 1.56 μM MBP(□) or bovine a-lactalbumin (Lalb; □) as a control. At specific time points, aliquots were collected from each sample and analyzed by thioflavin T binding and fluorescence to determine fibrillar assembly. Data represent the means±S.D. of triplicate samples. A.U., arbitrary units.
The Aβ B binding properties of the exemplary fragments of MBP described herein were determined in a thioflavin T fluorescence assay as follows: Lyophilized Aβ peptides were first resuspended with Me2SO to 2.5 mM, diluted to 12.5 μM in PBS, and then incubated at 37° C. with rocking either alone or with 1.56 μM MBP or bovine α-lactalbumin. Control samples containing 0.5% Me2SO and 1.56 μM MBP or lactalbumin in PBS were also included. At each time point, 100 μl samples of each reaction were placed in a 96-well microplate in triplicate, and 5 μl of 100 µM thioflavin T was added. The plate was mixed and incubated at 22° C. in the dark for 10 min. Fluorescence was measured at 490 nm with an excitation wavelength of 446 nm in a SpectraMax spectrofluorometer (Molecular Devices, Sunnyvale, Calif.) using SoftMax Pro control software. It is apparent that the method enables persons of skill in the art to determine the binding properties of MBP, variants thereof, and fragments thereof for any Aβ-peptide, including mutants thereof.

[9] = molecular target: Dutch/Iowa CAA mutant Aβ40 (Aβ40DI) (Homo sapiens, UniProt P05067, D694N/E693Q); assay: Surface plasmon resonance binding to immobilized Dutch/Iowa Aβ40
Procedure: All runs were performed on a Biacore 2000 instrument using 10 mM HEPES (pH 7.4), 150 mM NaCl, 3 mM EDTA, and 0.005% (v/v) Tween 20 as running buffer and diluent. Streptavidiri was conjugated to the surface of three flow cells of a CM5 chip at 10 μl/min using amine coupling chemistry to a final average response level of 1890.2 response units. N-terminally biotinylated Aβ peptides were resuspended in Me2SO to 2.5 mM and serially diluted to 13 nM immediately before application. Biotinylated Aβ40WT and Aβ40DI were bound to individual flow cells at 10 μl/min to achieve an average relative response level of 157.1 response units, leaving flow cell 1 as reference. […] The resultant Rmax of these surfaces was ˜700 response units with MBP as analyte. Purified MBP was passed over all four flow cells at 5, 10, 25, 50, and 100 nM at a flow rate of 30 μl/min for kinetic measurements. […] Surfaces were regenerated with 0.2 M glycine (pH 2.0) and 150 mM NaCl between runs. The resulting sensorgrams were analyzed by BIAanalysis software. Triplicate concentration series were used for each surface.
as §1

In the case of “MBP 50-64: MBP residues 50-64, RGAPKRGSGKDSHHP (SEQ ID NO: 51)”, the “abilities to bind Aβ and inhibit fibrillogenesis” value [1] is reported as “carries all the binding activity”.

For “GST-AβPP-(18-119): glutathione S-transferase fusion protein of AβPP residues 18-119, wild-type”, the “inhibition of endogenous sAβPPα binding to HCSM cell surface fibrillar Aβ” value [2] was “completely inhibited” and the “Aβ-induced HCSM cell death” value [3] was < 10%.

“AβPP-(105-119): synthesized 15 amino acid peptide spanning residues 105-119 of AβPP (CKTHPHFVIPYRCLV)” was tested, and the “inhibition of endogenous sAβPPα binding to HCSM cell surface fibrillar Aβ” value [2] was “partially diminish” and the “competition of biotinylated sAβPPα binding to fibrillar Aβ” value ([4]; 1 mM peptide) was “≈ 80%”.

With “AβPP-(102-116): synthesized overlapping 15-mer peptide of AβPP residues 102-116 (RKQCKTHPHFVIPYR)” the “competing activity of overlapping 15-mer peptides” value ([4]; data not shown) was “approximately half that of AβPP-(105-119)”.

“H110A mutant GST-AβPP-(18-119): GST-AβPP-(18-119) with alanine substitution at His110” was tested, and the “binding to fibrillar wild-type Aβ-(1-42) compared with wild-type GST-AβPP-(18-119)” value [5] was “considerably reduced binding”, the “prevention of Aβ-induced HCSM cell death” value [3] was “incapable of preventing the cytotoxic effects” and the “binding to fibrillar amylin peptide compared with wild-type GST-AβPP-(18-119)” value [6] was “considerably reduced binding”. For the same molecule, the “fibrillar Aβ binding compared with wild-type GST-AβPP-(18-119)” value [7] was < 10%, the “binding to fibrillar Aβ compared with wild-type GST-AβPP-(18-119)” value ([7]; listed as H110A) was “markedly decreased binding” and the “binding to fibrillar Aβ compared with wild-type GST-AβPP-(18-119)” value ([7]; listed as His^110) was “highly diminished”.

For “I113A: GST-AβPP-(18-119) with alanine substitution at Ile113”, the “binding to fibrillar wild-type Aβ-(1-42) compared with wild-type GST-AβPP-(18-119)” value [5] was “considerably reduced binding”, the “binding to fibrillar amylin peptide compared with wild-type GST-AβPP-(18-119)” value [6] was “considerably reduced binding” and the “binding to fibrillar Aβ compared with wild-type GST-AβPP-(18-119)” value [7] was “markedly decreased binding”. The “binding to fibrillar Aβ compared with wild-type GST-AβPP-(18-119)” value ([7]; listed as Ile^113) was “highly diminished”.

In the case of P109A, the “binding to fibrillar Aβ compared with wild-type GST-AβPP-(18-119)” value [7] is reported as “little or no effect”.

With “C117A mutant GST-AβPP-(18-119): GST-AβPP-(18-119) with alanine substitution at Cys117” the “binding to fibrillar Aβ compared with wild-type GST-AβPP-(18-119)” value [7] was “markedly diminished binding” and the “binding to fibrillar Aβ compared with wild-type GST-AβPP-(18-119)” value ([7]; listed as C117A) was “substantially affects”.

F111A was tested, and the “binding to fibrillar Aβ compared with wild-type GST-AβPP-(18-119)” value [7] was “little or no effect”.

B1: MBP1 ΔKRG: MBP1 mutant with alanine substitutions in the KRG region (residues 54-56) (protein)
chain: MASQKRPSQRHGSKYLATASTMDHARHGFLRPHRDTGILDSIGRFFGGDRGAPAAASGKDSHHP
For B1, the “inhibition of Aβ40DI fibril assembly (thioflavin T)” value [8] was “lack fibril inhibition” and the “binding to Dutch/Iowa Aβ40 (Aβ40DI) by surface plasmon resonance” value (shortened to “binding to Dutch/Iowa Aβ40 (Aβ40DI)”) [9] was “do not bind”.

B2: MBP1 S57A (protein)
chain: MASQKRPSQRHGSKYLATASTMDHARHGFLRPHRDTGILDSIGRFFGGDRGAPKRGAGKDSHHP
For B2, the “binding to Dutch/Iowa Aβ40 (Aβ40DI)” value [9] was “does bind”.

B3: MBP1 ΔHP: MBP1 mutant with alanine substitutions at HP (residues 63-64) (protein)
chain: MASQKRPSQRHGSKYLATASTMDHARHGFLRPHRDTGILDSIGRFFGGDRGAPKRGSGKDSHAA
For B3, the “inhibition of Aβ40DI fibril assembly (thioflavin T)” value [8] was “lack fibril inhibition” and the “binding to Dutch/Iowa Aβ40 (Aβ40DI)” value [9] was “do not bind”.
